Sequences and labels used below:
B1: GTPase IMAP family member 7 (Homo sapiens), Q8NHV1 (parent)
chain: MAESEDRSLRIVLVGKTGSGKSATANTILGEEIFDSRIAAQAVTKNCQKASREWQGRDLLVVDTPGLFDTKESLDTTCKEISRCIISSCPGPHAIVLVLLLGRYTEEEQKTVALIKAVFGKSAMKHMVILFTRKEELEGQSFHDFIADADVGLKSIVKECGNRCCAFSNSKKTSKAEKESQVQELVELIEKMVQCNEGAYFSDDIYKDTEERLKQREEVLRKIYTDQLNEEIKLVEEDKHKSEEEKEKEIKLLKLKYDEKIKNIREEAERNIFKDVFNRIWKMLSEIWHRFLSKCKFYSS

The values below come from IntAct's records for PubMed 23454188.

The assay covers variants of B1. To be noted: with gima2_human GIMAP2, Q9UG22.
Sequence of gima2_human GIMAP2, Q9UG22 (Q9UG22 whole entry): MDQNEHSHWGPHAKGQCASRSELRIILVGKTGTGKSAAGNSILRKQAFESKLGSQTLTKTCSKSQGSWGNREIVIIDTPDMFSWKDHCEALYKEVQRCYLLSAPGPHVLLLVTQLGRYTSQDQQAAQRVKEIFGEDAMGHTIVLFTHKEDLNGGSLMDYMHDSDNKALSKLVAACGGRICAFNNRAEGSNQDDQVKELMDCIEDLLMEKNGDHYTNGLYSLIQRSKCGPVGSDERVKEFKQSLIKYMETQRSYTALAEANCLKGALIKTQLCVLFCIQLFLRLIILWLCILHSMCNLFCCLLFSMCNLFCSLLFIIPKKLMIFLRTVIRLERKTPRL
In the case of MAESEDRSLRIVLVGKTGSGKSATANTILGEEIFDSRIAAQAVTKNCQKASREWQGRDLLVVDTPGLFDTKESLDTTCKEISRCIISSCPGPHAIVLVLLLGDYTEEEQKTVALIKAVFGKSAMKHMVILFTRKEELEGQSFHDFIADADVGLKSIVKECGNRCCAFSNSKKTSKAEKESQVQELVELIEKMVQCNEGAYFSDDIYKDTEERLKQREEVLRKIYTDQLNEEIKLVEEDKHKSEEEKEKEIKLLKLKYDEKIKNIREEAERNIFKDVFNRIWKMLSEIWHRFLSKCKFYSS [R103D], the “effect of a mutation on the interaction” value is reported as “disrupting interaction strength”. For MAESEDRSLRIVLVGKTGSGKSATANTILGEEIFDSRIAAQAVTKNCQKASREWQGRDLLVVDTPGLFDTKESLDTTCKEISRCIISSCPGPHAIVLVLLLGRYTEEEQKTVALIKAVFGKSAMKHMVILFTRKEWLEGQSFHDFIADADVGLKSIVKECGNRCCAFSNSKKTSKAEKESQVQELVELIEKMVQCNEGAYFSDDIYKDTEERLKQREEVLRKIYTDQLNEEIKLVEEDKHKSEEEKEKEIKLLKLKYDEKIKNIREEAERNIFKDVFNRIWKMLSEIWHRFLSKCKFYSS [E136W] the value was “decreasing interaction strength”.
